Reference: article PMC8498191, “Structural and Mechanistic Insights Into Dimethylsulfoxide Formation Through Dimethylsulfide Oxidation” (Frontiers in Microbiology, 2021)

Assays:
Tmm7211 [1] = molecular target: T1, Tmm7211 (Candidatus Pelagibacter sp. HTCC7211, UniProt B6BQB2); experiment: X-ray crystal structure, […] Å; type: binding
T1 construct: gene tmm; full-length synthesized gene (1335 bp, 444 residues, 52 kDa), N-terminal His tag (pET28a), E. coli BL21(DE3); Ni-NTA and Superdex-200
T1 sequence (B6BQB2 1-444): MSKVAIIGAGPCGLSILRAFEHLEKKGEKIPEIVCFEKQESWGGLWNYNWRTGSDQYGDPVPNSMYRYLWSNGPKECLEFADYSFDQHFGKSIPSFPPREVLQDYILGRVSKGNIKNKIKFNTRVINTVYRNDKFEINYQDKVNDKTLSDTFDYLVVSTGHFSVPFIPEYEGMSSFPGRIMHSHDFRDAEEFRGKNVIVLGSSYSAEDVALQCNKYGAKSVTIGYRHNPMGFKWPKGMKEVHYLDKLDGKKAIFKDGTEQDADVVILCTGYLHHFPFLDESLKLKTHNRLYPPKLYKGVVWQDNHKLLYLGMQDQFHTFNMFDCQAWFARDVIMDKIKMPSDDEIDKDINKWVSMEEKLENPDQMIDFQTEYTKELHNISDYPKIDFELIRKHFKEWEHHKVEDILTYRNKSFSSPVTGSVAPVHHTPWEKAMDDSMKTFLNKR

Tmm7211 [2] = molecular target: T1, Tmm7211; experiment: NADPH oxidation at […] nm; type: biochemical; details: read-out: Apparent KM; 0.25 mM NADPH, 1 μM enzyme, 10 mM Tris-HCl pH 7.0, 100 mM NaCl
purified protein [3] = substrate: CN(C)C; experiment: purified protein; type: biochemical, Candidatus Pelagibacter sp. HTCC7211; details: 0.25 mM NADPH, 1 μM enzyme, 10 mM Tris-HCl pH 7.0, 100 mM NaCl; pH 7.0
purified protein [4] = substrate: CSC; experiment: purified protein; type: biochemical, Candidatus Pelagibacter sp. HTCC7211; details: 0.25 mM NADPH, 1 μM enzyme, 10 mM Tris-HCl pH 7.0, 100 mM NaCl; pH 7.0
purified protein [5] = substrate: NC(=O)C1=CN([C@@H]2O[C@H](COP(=O)(O)OP(=O)(O)OC[C@H]3O[C@@H](n4cnc5c(N)ncnc54)[C@H](OP(=O)(O)O)[C@@H]3O)[C@@H](O)[C@H]2O)C=CC1; experiment: purified protein; type: biochemical, Candidatus Pelagibacter sp. HTCC7211; details: 1 mM DMS, 1.5 μM enzyme
[6] = molecular target: the molecule itself; experiment: SEC; analytical gel filtration on a calibrated Superose 6 column, 10 mM Tris-HCl (pH 8.0), 100 mM NaCl; apparent mass 95 kDa against 52 kDa calculated for the monomer
purified protein [7] = substrate: Cn1cc[nH]c1=S; experiment: purified protein; details: 0.25 mM NADPH, 1 μM enzyme, 10 mM Tris-HCl pH 7.0, 100 mM NaCl

Cc1cc2nc3c(=O)[nH]c(=O)nc-3n(C[C@H](O)[C@H](O)[C@H](O)COP(=O)(O)OP(=O)(O)OC[C@H]3O[C@@H](n4cnc5c(N)ncnc54)[C@H](O)[C@@H]3O)c2cc1C [FAD]
X-ray crystal structure, 1.8 Å (Tmm7211 [1]; FAD bound during expression in E. coli): the NADP^+ and FAD molecules can be clearly observed in the structure

NC(=O)c1ccc[n+]([C@@H]2O[C@H](COP(=O)(O)OP(=O)(O)OC[C@H]3O[C@@H](n4cnc5c(N)ncnc54)[C@H](OP(=O)(O)O)[C@@H]3O)[C@@H](O)[C@H]2O)c1 [NADP^+]
X-ray crystal structure, 1.8 Å (Tmm7211 [1]; crystallised with 5 mM NADPH): the NADP^+ and FAD molecules can be clearly observed in the structure

CNC [DMA]
Km (Tmm7211 [2]): 181 ± 23.7 µM

B1: trimethylamine monooxygenase from Pelagibacter sp. HTCC7211 (Tmm_(7211)) (enzyme, UniProt B6BQB2 1-444, looked up)
chain: MSKVAIIGAGPCGLSILRAFEHLEKKGEKIPEIVCFEKQESWGGLWNYNWRTGSDQYGDPVPNSMYRYLWSNGPKECLEFADYSFDQHFGKSIPSFPPREVLQDYILGRVSKGNIKNKIKFNTRVINTVYRNDKFEINYQDKVNDKTLSDTFDYLVVSTGHFSVPFIPEYEGMSSFPGRIMHSHDFRDAEEFRGKNVIVLGSSYSAEDVALQCNKYGAKSVTIGYRHNPMGFKWPKGMKEVHYLDKLDGKKAIFKDGTEQDADVVILCTGYLHHFPFLDESLKLKTHNRLYPPKLYKGVVWQDNHKLLYLGMQDQFHTFNMFDCQAWFARDVIMDKIKMPSDDEIDKDINKWVSMEEKLENPDQMIDFQTEYTKELHNISDYPKIDFELIRKHFKEWEHHKVEDILTYRNKSFSSPVTGSVAPVHHTPWEKAMDDSMKTFLNKR
notes: trimethylamine monooxygenase (Tmm, EC 1.14.13.148), a bacterial flavin-containing monooxygenase of the SAR11 bacterium Pelagibacter sp; HTCC7211; 1335-bp full-length tmm gene, synthesised; 444 amino acid residues, calculated mass 52 kDa; NADPH (5 mM) was added before crystallisation, and NADP+ and FAD are seen in the structure; Cloned in pET28a; also called WT Tmm_(7211); recombinant Tmm_(7211); …
Km (purified protein [3]): 139.0 ± 10.7 µM | kcat (purified protein [3]): 0.373 ± 0.0133 s⁻¹ | kcat/Km (purified protein [3]): 2690 M⁻¹ s⁻¹ | Km (purified protein [4]): 250.5 ± 23.0 µM | kcat (purified protein [4]): 0.075 ± 0.005 s⁻¹ | kcat/Km (purified protein [4]): 300 M⁻¹ s⁻¹ | Km (purified protein [5]): 12.8 ± 0.4 µM | kcat (purified protein [5]): 0.075 ± 0.005 s⁻¹ | stoichiometry N [6]: 2 | Km (purified protein [7]): 116.2 ± 13.8 µM | kcat (purified protein [7]): 0.0867 s⁻¹ | kcat/Km (purified protein [7]): 747 M⁻¹ s⁻¹

B2: Tmm7211 (Candidatus Pelagibacter sp. HTCC7211; N72A) (protein)
chain: MSKVAIIGAGPCGLSILRAFEHLEKKGEKIPEIVCFEKQESWGGLWNYNWRTGSDQYGDPVPNSMYRYLWSAGPKECLEFADYSFDQHFGKSIPSFPPREVLQDYILGRVSKGNIKNKIKFNTRVINTVYRNDKFEINYQDKVNDKTLSDTFDYLVVSTGHFSVPFIPEYEGMSSFPGRIMHSHDFRDAEEFRGKNVIVLGSSYSAEDVALQCNKYGAKSVTIGYRHNPMGFKWPKGMKEVHYLDKLDGKKAIFKDGTEQDADVVILCTGYLHHFPFLDESLKLKTHNRLYPPKLYKGVVWQDNHKLLYLGMQDQFHTFNMFDCQAWFARDVIMDKIKMPSDDEIDKDINKWVSMEEKLENPDQMIDFQTEYTKELHNISDYPKIDFELIRKHFKEWEHHKVEDILTYRNKSFSSPVTGSVAPVHHTPWEKAMDDSMKTFLNKR
notes: full-length synthesized gene (1335 bp, 444 residues, 52 kDa), N-terminal His tag (pET28a), E. coli BL21(DE3); Ni-NTA and Superdex-200
Km (purified protein [5]): 34.1 ± 1.0 µM | kcat (purified protein [5]): 0.0317 ± 0.00333 s⁻¹

B3: Tmm7211 (Candidatus Pelagibacter sp. HTCC7211; R226A) (protein)
chain: MSKVAIIGAGPCGLSILRAFEHLEKKGEKIPEIVCFEKQESWGGLWNYNWRTGSDQYGDPVPNSMYRYLWSNGPKECLEFADYSFDQHFGKSIPSFPPREVLQDYILGRVSKGNIKNKIKFNTRVINTVYRNDKFEINYQDKVNDKTLSDTFDYLVVSTGHFSVPFIPEYEGMSSFPGRIMHSHDFRDAEEFRGKNVIVLGSSYSAEDVALQCNKYGAKSVTIGYAHNPMGFKWPKGMKEVHYLDKLDGKKAIFKDGTEQDADVVILCTGYLHHFPFLDESLKLKTHNRLYPPKLYKGVVWQDNHKLLYLGMQDQFHTFNMFDCQAWFARDVIMDKIKMPSDDEIDKDINKWVSMEEKLENPDQMIDFQTEYTKELHNISDYPKIDFELIRKHFKEWEHHKVEDILTYRNKSFSSPVTGSVAPVHHTPWEKAMDDSMKTFLNKR
notes: as for B2
Km (purified protein [5]): 101.8 ± 8.6 µM | kcat (purified protein [5]): 0.015 ± 0.00167 s⁻¹
